From PMC7837216, “ISRIB Blunts the Integrated Stress Response by Allosterically Antagonising the Inhibitory Effect of Phosphorylated eIF2 on eIF2B” (Molecular Cell, 2021) come the findings set out here.

Experiment [1] concerns the target human eIF2B decamer, wild type (human) (UniProt Q14232). Put plainly: fluorescence polarisation; FAM-ISRIB (2.5-5 nM) bound to eIF2B, displaced by rising eIF2(αP) (0-2.5 μM) or P-eIF2α-NTD (0-40 μM); equilibrium, 30 min at room temperature; 20 mM HEPES-KOH pH 7.4, 150 mM KCl, 2 mM MgCl2, 1 mM TCEP, 0.05 mg/mL BSA, 0.01% Triton X-100; four-parameter log[inhibitor] fit. For orientation: Polarisation of emitted light reports the rotation of a fluorescent probe.

Experiment [2] concerns the target biotinylated, phosphorylated N-terminal domain of human eIF2α (human) (UniProt P05198). Put plainly: BLI; as a3 but with ISRIB (1 μM) in the association and dissociation buffer.
Experiment [3] has the same target. Put plainly: BLI; biotinylated P-eIF2α-NTD on streptavidin sensors, eIF2B in solution, without ISRIB (DMSO); 30°C; 20 mM HEPES pH 7.4, 150 mM KCl, 2 mM MgCl2, 1 mM TCEP, 0.05 mg/mL BSA, 0.01% Triton X-100; plateau values of 2-phase association fits against eIF2B concentration (9-150 nM).

pIC50: −log10 of the molar value.

Usually pIC50 stands for the IC50 on a negative log10 scale, so that one unit is a factor of ten. A higher pIC50 goes with a low IC50.

The substance “phosphorylated human eIF2 trimer, eIF2(αP) (from UniProt P05198 1-315; P20042 1-333; P41091 1-472) (complex)” gave a pIC50 in experiment [1] of 6.60.

For “biotinylated, phosphorylated N-terminal domain of human eIF2α (from UniProt P05198 1-187) (domain or fragment)”, in experiment [1], the pIC50 was 5.52.

With “human eIF2B decamer, wild type (from UniProt Q14232 1-305; P49770 1-351; Q9NR50 1-452; Q9UI10 1-523; Q13144 1-721) (complex)”, the results for the K1/2max in experiment [2] and in experiment [3] were 29.8 nM and 15.2 nM, respectively.
